# Test results: publication PMC7566563
# Target: Cglo-CDPS-S32A (Candidatus Glomeribacter gigasporarum) (UniProt G2JBB2)
# Assay: EMSA
# Conditions: 8 mM MgCl2; apparent Kd, 3 experiments; 3'-phenylalanylated; native E. coli modifications (s4U8, D16, D20, psi32, psi39, ms2i6A37, m7G46, acp3U47, T54, psi55); EMSA: 75 nM tRNA, 0.1-15 uM enzyme, 20 min at 4 C in buffer A (10 mM MOPS pH 6.7, 200 mM NaCl, 8 mM MgCl2, 5 mM 2-mercaptoethanol); native 12% gel in 90 mM …
substance,measurement,value
Phe-tRNAPhe,Kd,1600 nM
